Source: US20260055182A1 (CIS BIOPHARMA, published 2026)
Each block holds one binder with its values, some of them ahead of it.

Assays:
[1] = target: T1, L1-CAM recombinant protein (His Tag), human (human, UniProt P32004 20-1120); assay: ELISA, human L1-CAM coated at 2 µg/ml
T1 construct: Bought protein; also called CD171; human L1-CAM; not shown: His tag

[2] = target: T1, L1-CAM recombinant protein (His Tag), …; assay: SPR (Biacore 8K); L1-CAM immobilised on CM5 chip, antibody as analyte
Protocol: (§1) In the SPR experiment, antigen is immobilized on sensor chip and solutions containing antibody at various concentrations are flown over the antigen. real time measurement of kinetics parameters is performed, including their on/off rates (ka and kd). Based thereon, binding affinity constant KD is determined.

[3] = target: T1, L1-CAM recombinant protein (His Tag), …; assay: SPR (Biacore 8K) as in Example 6, new batch of L1-CAM on the chip
Protocol: as §1

[4] = target: T1, L1-CAM recombinant protein (His Tag), …; assay: SPR (Biacore 8K); L1-CAM immobilised on CM5 chip, antibody as analyte; remark: listed apart in the source
Protocol: as §1

T1 sequence (P32004 20-1120 limits assumed): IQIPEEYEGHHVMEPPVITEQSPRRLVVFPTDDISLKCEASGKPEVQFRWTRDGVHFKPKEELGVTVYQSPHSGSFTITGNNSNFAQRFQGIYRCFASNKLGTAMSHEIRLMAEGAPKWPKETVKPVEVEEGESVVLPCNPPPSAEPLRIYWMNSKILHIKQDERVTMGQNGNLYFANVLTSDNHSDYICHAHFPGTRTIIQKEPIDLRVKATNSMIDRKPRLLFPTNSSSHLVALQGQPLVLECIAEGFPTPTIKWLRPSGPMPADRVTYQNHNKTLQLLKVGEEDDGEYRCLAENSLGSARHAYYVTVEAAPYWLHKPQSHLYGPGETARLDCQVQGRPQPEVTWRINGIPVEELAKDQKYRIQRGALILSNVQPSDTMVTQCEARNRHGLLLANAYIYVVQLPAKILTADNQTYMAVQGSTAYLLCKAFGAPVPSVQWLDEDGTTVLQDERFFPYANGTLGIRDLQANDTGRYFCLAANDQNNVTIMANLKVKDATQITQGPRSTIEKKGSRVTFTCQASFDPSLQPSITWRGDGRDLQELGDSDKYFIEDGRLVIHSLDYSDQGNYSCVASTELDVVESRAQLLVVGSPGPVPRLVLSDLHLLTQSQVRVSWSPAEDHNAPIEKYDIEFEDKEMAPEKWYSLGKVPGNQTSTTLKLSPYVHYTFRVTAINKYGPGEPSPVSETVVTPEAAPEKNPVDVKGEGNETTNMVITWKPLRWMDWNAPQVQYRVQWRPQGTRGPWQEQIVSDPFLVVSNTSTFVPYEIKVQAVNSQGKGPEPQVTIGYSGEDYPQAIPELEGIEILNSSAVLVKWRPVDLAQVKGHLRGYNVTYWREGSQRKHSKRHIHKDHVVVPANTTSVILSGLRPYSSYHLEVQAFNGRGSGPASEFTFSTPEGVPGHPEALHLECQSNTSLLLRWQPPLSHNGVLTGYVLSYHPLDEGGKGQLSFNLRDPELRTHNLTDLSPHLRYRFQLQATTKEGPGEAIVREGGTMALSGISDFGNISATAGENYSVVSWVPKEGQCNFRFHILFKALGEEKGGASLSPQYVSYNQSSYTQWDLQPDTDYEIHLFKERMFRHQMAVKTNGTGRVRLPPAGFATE

B1: LV1 (antibody, V domains shown)
VH: QVQLQQPGAELVKPGASVKLSCKASGYTFTGYYMHWVKQRPGHGLEWIGEINPSNGRTNYNERFKSKATLTVDKSSTTAFMQLSGLTSEDSAVYFCARDYYGTSYNFDYWGQGTTLTVSS
VL: DIQMTQSSSSFSVSLGDRVTITCKANEDINNRLAWYQQTPGNSPRLLISGATNLVTGVPSRFSGSGSGKDYTLTITSLQAEDFATYYCQQYWSTPFTFGSGTELEIKR
notes: CE7-VH-chimeric-WH33Y + CE7-VL-chimeric; chimeric CE7, human IgG1 kappa, L234A L235A P331S N297A; also called liability variant 1
EC50 [1]: 0.0362 µg/mL

B2: LV5 (antibody, V domains shown)
VH: QVQLQQPGAELVKPGASVKLSCKASGYTFTGYWMHWVKQRPGHGLEWIGEINPSNGRTNYNERFKSKATLTVDKSSTTAFMQLSGLTSEDSAVYFCARDYYGTSYNFDYWGQGTTLTVSS
VL: DIQMTQSSSSFSVSLGDRVTITCKANEDINLRLAWYQQTPGNSPRLLISGATNLVTGVPSRFSGSGSGKDYTLTITSLQAEDFATYYCQQYWSTPFTFGSGTELEIKR
notes: CE7-VH-chimeric + CE7-VL-chimeric-NL31L; chimeric CE7, human IgG1 kappa, L234A L235A P331S N297A; also called liability variant 5
EC50 [1]: 0.0318 µg/mL

B3: LV8 (antibody, V domains shown)
VH: QVQLQQPGAELVKPGASVKLSCKASGYTFTGYWMHWVKQRPGHGLEWIGEINPSNGRTNYNERFKSKATLTVDKSSTTAFMQLSGLTSEDSAVYFCARDYYGTSYNFDYWGQGTTLTVSS
VL: DIQMTQSSSSFSVSLGDRVTITCKANEDINNRLAWYQQTPGNSPRLLISGATNLVTGVPSRFSGSGSGKDYTLTITSLQAEDFATYYCQQYFSTPFTFGSGTELEIKR
notes: CE7-VH-chimeric + CE7-VL-chimeric-WL92F; chimeric CE7, human IgG1 kappa, L234A L235A P331S N297A; also called liability variant 8
EC50 [1]: 0.0335 µg/mL

B4: LV7 (antibody, V domains shown)
VH: QVQLQQPGAELVKPGASVKLSCKASGYTFTGYWMHWVKQRPGHGLEWIGEINPSNGRTNYNERFKSKATLTVDKSSTTAFMQLSGLTSEDSAVYFCARDYYGTSYNFDYWGQGTTLTVSS
VL: DIQMTQSSSSFSVSLGDRVTITCKANEDINNRLAWYQQTPGNSPRLLISGATNLVTGVPSRFSGSGSGKDYTLTITSLQAEDFATYYCQQYYSTPFTFGSGTELEIKR
notes: CE7-VH-chimeric + CE7-VL-chimeric-WL92Y; chimeric CE7, human IgG1 kappa, L234A L235A P331S N297A; also called liability variant 7
EC50 [1]: 0.0246 µg/mL

B5: LV6 (antibody, V domains shown)
VH: QVQLQQPGAELVKPGASVKLSCKASGYTFTGYWMHWVKQRPGHGLEWIGEINPSNGRTNYNERFKSKATLTVDKSSTTAFMQLSGLTSEDSAVYFCARDYYGTSYNFDYWGQGTTLTVSS
VL: DIQMTQSSSSFSVSLGDRVTITCKANEDINARLAWYQQTPGNSPRLLISGATNLVTGVPSRFSGSGSGKDYTLTITSLQAEDFATYYCQQYWSTPFTFGSGTELEIKR
notes: CE7-VH-chimeric + CE7-VL-chimeric-NL31A; chimeric CE7, human IgG1 kappa, L234A L235A P331S N297A; also called liability variant 6
EC50 [1]: 0.0268 µg/mL

B8: LV2 (antibody, V domains shown)
VH: QVQLQQPGAELVKPGASVKLSCKASGYTFTGYFMHWVKQRPGHGLEWIGEINPSNGRTNYNERFKSKATLTVDKSSTTAFMQLSGLTSEDSAVYFCARDYYGTSYNFDYWGQGTTLTVSS
VL: DIQMTQSSSSFSVSLGDRVTITCKANEDINNRLAWYQQTPGNSPRLLISGATNLVTGVPSRFSGSGSGKDYTLTITSLQAEDFATYYCQQYWSTPFTFGSGTELEIKR
notes: CE7-VH-chimeric-WH33F + CE7-VL-chimeric; chimeric CE7, human IgG1 kappa, L234A L235A P331S N297A; also called liability variant 2
EC50 [1]: 0.0459 µg/mL

B9: CE7-variant18-AG (antibody)
heavy: QVQLQQWGAGLLKPSETLSLTCAAYGYTFTGYWMHWIRQPPGKGLEWIGEINPSNGRTNYNERLKSRVTLSVDKSKNQASLKLSSVTAADTAVYFCARDYYGTSYNFDYWGQGTLVTVSSASTKGPSVFPLAPSSKSTSGGTAALGCLVKDYFPEPVTVSWNSGALTSGVHTFPAVLQSSGLYSLSSVVTVPSSSLGTQTYICNVNHKPSNTKVDKKVEPKSCDKTHTCPPCPAPEAAGGPSVFLFPPKPKDTLMISRTPEVTCVVVDVSHEDPEVKFNWYVDGVEVHNAKTKPREEQYASTYRVVSVLTVLHQDWLNGKEYKCKVSNKALPASIEKTISKAKGQPREPQVYTLPPSREEMTKNQVSLTCLVKGFYPSDIAVEWESNGQPENNYKTTPPVLDSDGSFFLYSKLTVDKSRWQQGNVFSCSVMHEALHNHYTQKSLSLSPGK
light: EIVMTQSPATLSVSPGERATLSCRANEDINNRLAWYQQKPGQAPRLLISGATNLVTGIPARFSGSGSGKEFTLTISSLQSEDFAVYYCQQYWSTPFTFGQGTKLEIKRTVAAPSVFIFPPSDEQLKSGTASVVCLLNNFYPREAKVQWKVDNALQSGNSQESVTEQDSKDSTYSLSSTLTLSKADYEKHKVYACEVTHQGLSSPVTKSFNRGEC
notes: CE7-4-34-VHA (L234A L235A P331S N297A) + CE7-3-15-VLB, aglycosylated human IgG1 kappa; N297 of IgG1 numbering is residue 319 of the entry (QYNST); also called CE7-varant18-AG
Kd [2]: 1.24 pM | koff [2]: 1.35e-06 s⁻¹ | kon [2]: 1.09e+06 M⁻¹ s⁻¹

B13: huCE7 variant LV38 (antibody, human IgG1, kappa, L234A L235A, N297A)
heavy: QVQLVQSGAEVKKPGASVKVSCKASGYTFTGYFMHWVRQAPGQGLEWIGEINPSNARTNYNERFQGRVTLTVDKSISTAYMELSRLRSDDTAVYYCARDYYGTSYNFDYWGQGTLVTVSSASTKGPSVFPLAPSSKSTSGGTAALGCLVKDYFPEPVTVSWNSGALTSGVHTFPAVLQSSGLYSLSSVVTVPSSSLGTQTYICNVNHKPSNTKVDKKVEPKSCDKTHTCPPCPAPEAAGGPSVFLFPPKPKDTLMISRTPEVTCVVVDVSHEDPEVKFNWYVDGVEVHNAKTKPREEQYASTYRVVSVLTVDHQDWLNGKEYKCKVSNKALPASIEKTISKAKGQPREPQVYTLPPSREEMTKNQVSLTCLVKGFYPSDIAVEWESNGQPENNYKTTPPVLDSDGSFFLYSKLTVDKSRWQQGNVFSCSVMHEALHNHYTQKSLSLSPGK
light: DIQMTQSPSSLSASVGDRVTITCKANEDINARLAWYQQKPGKAPKLLISGATNLVTGVPSRFSGSGSGKDYTLTISSLQPEDFATYYCQQYYSTPFTFGQGTKLEIKRTVAAPSVFIFPPSDEQLKSGTASVVCLLNNFYPREAKVQWKVDNALQSGNSQESVTEQDSKDSTYSLSSTLTLSKADYEKHKVYACEVTHQGLSSPVTKSFNRGEC
notes: Variant 7AG with HC WH33F, GH55A, LH309D and LC NL31A, WL92Y; also called huCE7-variant38
Kd [3]: 268 pM | koff [3]: 3.23e-05 s⁻¹ | kon [3]: 121000 M⁻¹ s⁻¹

B14: CE7-variant28 (antibody, V domains shown)
VH: QVQLVQSGAEVKKPGASVKVSCKASGYTFTGYWMHWVRQAPGQGLEWMGEINPSNGRTNYNEKFQGRVTLTVDKSISTAYMELSRLRSDDTAVYYCARDYYGTSYNFDYWGQGTLVTVSS
VL: DIQMTQSPSSLSASVGDRVTITCRASQGINNRLAWYQQKPGKAPKLLISGASNLVSGVPSRFSGSGSGKDYTLTISSLQPEDFATYYCQQYWSTPFTFGQGTKLEIKR
notes: CE7-1-2-VHD + CE7-1-NL1-VLD; human IgG1 kappa, L234A L235A P331S N297A (aglycosylated); also called humanized variant 28
EC50 [1]: 0.0701 µg/mL | Kd [4]: 46 pM | koff [4]: 3.62e-05 s⁻¹ | kon [4]: 787000 M⁻¹ s⁻¹

Next, values leading:

EC50 [1]: 0.0394 µg/mL
B6: LV4 (antibody, V domains shown)
VH: QVQLQQPGAELVKPGASVKLSCKASGYTFTGYWMHWVKQRPGHGLEWIGEINPSNARTNYNERFKSKATLTVDKSSTTAFMQLSGLTSEDSAVYFCARDYYGTSYNFDYWGQGTTLTVSS
VL: DIQMTQSSSSFSVSLGDRVTITCKANEDINNRLAWYQQTPGNSPRLLISGATNLVTGVPSRFSGSGSGKDYTLTITSLQAEDFATYYCQQYWSTPFTFGSGTELEIKR
notes: CE7-VH-chimeric-GH55A + CE7-VL-chimeric; chimeric CE7, human IgG1 kappa, L234A L235A P331S N297A; also called liability variant 4

EC50 [1]: 0.0328 µg/mL
B7: LV3 (antibody, V domains shown)
VH: QVQLQQPGAELVKPGASVKLSCKASGYTFTGYLMHWVKQRPGHGLEWIGEINPSNGRTNYNERFKSKATLTVDKSSTTAFMQLSGLTSEDSAVYFCARDYYGTSYNFDYWGQGTTLTVSS
VL: DIQMTQSSSSFSVSLGDRVTITCKANEDINNRLAWYQQTPGNSPRLLISGATNLVTGVPSRFSGSGSGKDYTLTITSLQAEDFATYYCQQYWSTPFTFGSGTELEIKR
notes: CE7-VH-chimeric-WH33L + CE7-VL-chimeric; chimeric CE7, human IgG1 kappa, L234A L235A P331S N297A; also called liability variant 3

Kd [2]: 0.664 pM | koff [2]: 8.18e-07 s⁻¹ | kon [2]: 1.23e+06 M⁻¹ s⁻¹
B10: CE7-variant4-AG (antibody)
heavy: QVQLVQSGAEVKKPGASVKVSCKASGYTFTGYWMHWVRQAPGQGLEWIGEINPSNGRTNYNERFKSRVTLTVDKSISTAYMELSRLRSDDTAVYFCARDYYGTSYNFDYWGQGTLVTVSSASTKGPSVFPLAPSSKSTSGGTAALGCLVKDYFPEPVTVSWNSGALTSGVHTFPAVLQSSGLYSLSSVVTVPSSSLGTQTYICNVNHKPSNTKVDKKVEPKSCDKTHTCPPCPAPEAAGGPSVFLFPPKPKDTLMISRTPEVTCVVVDVSHEDPEVKFNWYVDGVEVHNAKTKPREEQYASTYRVVSVLTVLHQDWLNGKEYKCKVSNKALPASIEKTISKAKGQPREPQVYTLPPSREEMTKNQVSLTCLVKGFYPSDIAVEWESNGQPENNYKTTPPVLDSDGSFFLYSKLTVDKSRWQQGNVFSCSVMHEALHNHYTQKSLSLSPGK
light: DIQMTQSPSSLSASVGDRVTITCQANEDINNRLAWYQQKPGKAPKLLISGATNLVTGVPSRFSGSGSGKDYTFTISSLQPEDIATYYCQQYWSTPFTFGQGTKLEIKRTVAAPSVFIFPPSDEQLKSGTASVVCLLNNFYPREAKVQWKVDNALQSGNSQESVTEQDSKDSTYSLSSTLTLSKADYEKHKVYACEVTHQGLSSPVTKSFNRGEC
notes: CE7-1-2-VHA (L234A L235A P331S N297A) + CE7-1-33-VLB, aglycosylated human IgG1 kappa; also called CE7-varant4-AG

kon [3]: 1.92e+06 M⁻¹ s⁻¹
B11: huCE7 variant LV42 (antibody, human IgG1, kappa, L234A L235A, N297A)
heavy: QVQLVQSGAEVKKPGASVKVSCKASGYTFTGYWMHWVRQAPGQGLEWIGEINPSNGRTNYNERFQGRVTLTVDKSISTAYMELSRLRSDDTAVYYCARDYYGTSYNFDYWGQGTLVTVSSASTKGPSVFPLAPSSKSTSGGTAALGCLVKDYFPEPVTVSWNSGALTSGVHTFPAVLQSSGLYSLSSVVTVPSSSLGTQTYICNVNHKPSNTKVDKKVEPKSCDKTHTCPPCPAPEAAGGPSVFLFPPKPKDTLMISRTPEVTCVVVDVSHEDPEVKFNWYVDGVEVHNAKTKPREEQYASTYRVVSVLPVLHQDWLNGKEYKCKVSNKALPASIEKTISKAKGQPREPQVYTLPPSREEMTKNQVSLTCLVKGFYPSDIAVEWESNGQPENNYKTTPPVLDSDGSFFLYSKLTVDKSRWQQGNVFSCSVMHEALHNHYTQKSLSLSPGK
light: DIQMTQSPSSLSASVGDRVTITCKANEDINNRLAWYQQKPGKAPKLLISGATNLVTGVPSRFSGSGSGKDYTLTISSLQPEDFATYYCQQYWSTPFTFGQGTKLEIKRTVAAPSVFIFPPSDEQLKSGTASVVCLLNNFYPREAKVQWKVDNALQSGNSQESVTEQDSKDSTYSLSSTLTLSKADYEKHKVYACEVTHQGLSSPVTKSFNRGEC
notes: Variant 7AG with HC TH307P; also called huCE7-variant42

EC50 [1]: 0.0127 µg/mL | Kd [4]: 0.186 pM | koff [4]: 1.65e-07 s⁻¹ | kon [4]: 891000 M⁻¹ s⁻¹
B12: CE7-variant26 (antibody, V domains shown)
VH: QVQLVQSGAEVKKPGASVKVSCKASGYTFTGYWMHWVRQAPGQGLEWMGEINPSNGRTNYNEKFQGRVTLTVDKSISTAYMELSRLRSDDTAVYYCARDYYGTSYNFDYWGQGTLVTVSS
VL: DIQMTQSPSSLSASVGDRVTITCRANEDINNRLAWYQQKPGKAPKLLISGATNLVTGVPSRFSGSGSGKDYTLTISSLQPEDFATYYCQQYWSTPFTFGQGTKLEIKR
notes: CE7-1-2-VHD + CE7-1-NL1-VLB; human IgG1 kappa, L234A L235A P331S N297A (aglycosylated); also called humanized variant 26
